Experimental data: paper PMC9170038, “Crowdsourced RNA design discovers diverse, reversible, efficient, self-contained molecular switches”

B1: Eterna 7634493 (Same State - Theophylline A) (ssRNA)
RNA: ACAUGAGGAUCACCCAUGUCUGCCACUGAUACCAGCGGAAGAAAACGCCCUUGGCAGCAGAACAUGAGGAUCACCCAUGUAGGCU
B2: Eterna 10033 (Sensor v3, turn-off variant 2) (ssRNA)
RNA: ACUAGCGAAAUGCUCGUCUUAUUUUUGUAGAGGUUCUAAACAUGAGGAUCACCCAUGUAGUGGUUUUUGUGGAGGUA
B3: Eterna 1174 (Exclusion - Theophylline B) (ssRNA)
RNA: GCUGUCCAGUUCGAUACCAGAGUUAUCGCACUGUAGUGAUAAAGUGAUGUUUUAUCAGUCCUCCCUUGGCAGCGAUGCCCGGCUG
B4: Eterna 7695377 (Same State - Theophylline A) (ssRNA)
RNA: UCUUAACUAAAAUAAUGGGAUACCAGUGAUACCAGCCAUAUGCAGGGCCCUUGGCAGCACCCUUGGCAGCCUCGAGUGAUGUUCG
B5: Eterna 6417730 (Small Loop Same State NG 3) (ssRNA)
RNA: ACAUGAGGAUCUCCCAUGUAAAAUUAGGAUAUAUAACUGCACAUGAGGAUCACCCAUGUUUAACCGUAGAAGGGAUAAAUAAUU
B6: Eterna 1521 (Same State - FMN A) (ssRNA)
RNA: CGUAAGGAUUGACGACUGCAGAGCAAAAUAAAGGAUAUCGCAGCGUCGAGAAGGUUAUCGUGCGCCAGUGAUGUUGGCGGUAGUC
B7: Eterna 9 (K4-7bp_control) (ssRNA)
RNA: UUUCAGGGCAGUGAUGUUGCCCUCUUU
B8: Eterna 1188 (Exclusion - Theophylline B) (ssRNA)
RNA: AGCUGCCGAAUAGAUACCAGUGUCUUUAGUGAUGUUUCAGAGCUGGCACGAUCAGAAGGUCACCCUUGGCAGCUAGUGCCAGCGU
B9: Eterna 7720201 (Exclusion - Theophylline B) (ssRNA)
RNA: CCUAUCUCAUACGAUACCAGUCUACGAUAUUUUAUCGUUGCCAACACCGAGUGAUGUUCGGACCCUUGGCAGCGUAUGGGAUAGG
B10: Eterna 7709687 (Same State - Tryptophan B) (ssRNA)
RNA: UAUUAAGUGACGGCCGCCACUAUGGUGAUUUAUUUGUUUGAGUGAUGUUUUGAUGUUUGAUUUUGUAGGACCGGGUUAUGUGUUA
B11: Eterna 7705565 (Exclusion - FMN A) (ssRNA)
RNA: AGACUACCACACUGUCAAUAGACAGUGAACUAGGAUAUGCUGAUAAGCAGAAGGAGUGAUGUUCCUAAAGGUAGUCAAAUAUAAU
B12: Eterna 1257 (Exclusion - Tryptophan B) (ssRNA)
RNA: CUGUUUUAGUCGGCCGCCACUGCAAGUGAUGUUUGGAGUAUUAUGCCGUUUCUGUCCAUUGAACCCAGGACCGGGACCGGAUCGU
B13: Eterna 5988416 (Sensor, turn-off variant 1) (ssRNA)
RNA: UCACAAGCUGUGGGUGGUGACAUGAGGAUCACCCAUGUUUUGCUCGUCUUGUGCCGGGCCCGGCGCCCGGGCCCGGC
B14: Eterna 5998949 (Sensor, turn-off variant 1) (ssRNA)
RNA: UUUCCGGCGCGGGUUUUUUACAUGAGGAUCACCCAUGUCCUCUGCUUGUCUUGUCUUGGGCUUUUUUUGGGUUCGGG
B15: Eterna 6429692 (Inverted Same State NG 1) (ssRNA)
RNA: AUCAUGCUCAAGAAGGACAUGAGGAUCACCCAUGUAGGAUAUUGGGCGGUCACUUCUAGCUUGUGUGUAUCUGAAUACUCCAGG
B16: Eterna 6429508 (Inverted Exclusion NG 3) (ssRNA)
RNA: GGGUGCCCUGCAGAAGCGACAUGAGGAUCACCCAUGUAACGUAGAAGGGCCCGGAACUAAGGUGGGCAGGAUAUACUGUUAGGU

These binders were tested against T1, MS2 coat protein, dlFG mutant (Escherichia phage MS2, UniProt P03612, del68-81insG) (assay: 4 mM Mg2+; theophylline 2 mM; RNA-MaP array; 100 mM Tris-HCl pH 7.5, 80 mM KCl, 4 mM MgCl2, 0.1 mg/mL BSA, 1 mM DTT, 0.01 mg/mL yeast tRNA, 0.01% Tween-20; protein 1.5 nM to 3 uM; 37 C (Table S3)). Conditions: chain copies: 2; label: tethered by stalled RNA polymerase.
B1 was tested, and the Kd was 0.188 µM.

The binders below were run against T1, MS2 coat protein, dlFG mutant (assay: 4 mM Mg2+; miR-208a RNA 100 nM (AU…UUGU); RNA-MaP array; 100 mM Tris-HCl pH 7.5, 80 mM KCl, 4 mM MgCl2, 0.1 mg/mL BSA, 1 mM DTT, 0.01 mg/mL yeast tRNA, 0.01% Tween-20; protein 1.5 nM to 3 uM; 37 C (Table S3)). Conditions: chain copies: 2; label: tethered by stalled RNA polymerase.
Work on B2 yielded a Kd of 0.265 µM.

Each binder was assayed against T1, MS2 coat protein, dlFG mutant (assay: 4 mM Mg2+; no ligand; RNA-MaP array; 100 mM Tris-HCl pH 7.5, 80 mM KCl, 4 mM MgCl2, 0.1 mg/mL BSA, 1 mM DTT, 0.01 mg/mL yeast tRNA, 0.01% Tween-20; protein 1.5 nM to 3 uM; 37 C (Table S3)). Conditions: chain copies: 2; label: tethered by stalled RNA polymerase.
For B3, the Kd was over 3 µM. In the case of B4, the Kd is reported as over 3 µM. Binder B5 has a Kd of 1.1 µM. Binder B6 has a Kd of over 3 µM. Binder B7 has a Kd of over 3 µM. Binder B8 has a Kd of over 3 µM. For B9, the Kd was over 3 µM. B10 gave a Kd of over 3 µM. B11 showed a Kd of over 3 µM. B12 gave a Kd of over 3 µM. Binder B13 has a Kd of 1.08 µM. B14 gave a Kd of 0.798 µM.

Each binder was assayed against T1, MS2 coat protein, dlFG mutant (assay: 4 mM Mg2+; FMN 200 uM; RNA-MaP array; 100 mM Tris-HCl pH 7.5, 80 mM KCl, 4 mM MgCl2, 0.1 mg/mL BSA, 1 mM DTT, 0.01 mg/mL yeast tRNA, 0.01% Tween-20; protein 1.5 nM to 3 uM; 37 C (Table S3)). Conditions: chain copies: 2; label: tethered by stalled RNA polymerase.
B15 gave a Kd of 0.00754 µM. B16 gave a Kd of 0.00724 µM.
